Numbered stars: 1 amine (or outer) side, 2 acyl side, 3 side chain; on linkers, the order of the positions; unused ones are H or OH. Bridge positions count the residues as written; N and C are the ends. Square brackets hold non-standard residues; d marks the D form. Side chains are listed from the residue outwards. Ends that are not written are not given here. * marks the point of attachment. R6me = (R)-2-amino-2-methyloct-7-enoic acid, C=CCCCC[C@@](C)(N[*:1])C(=O)[*:2]; S7 = C[C@@](CCCCCC=[*:3])(N[*:1])C(=O)[*:2]; γGlu = O=C(O)[C@H](CCC(=O)[*:2])N[*:1]; Palmitoyl = CCCCCCCCCCCCCCCC(=O)*; S5 = C=CCCC[C@](C)(N)C(=O)O; Aib = CC(C)(N)C(=O)O
B1: peptide of SEQ ID NO: 15 (TP506) (peptide)
peptide: HXQGTFTSDXSKYLDERAAXDFVXWLLDT
modifications: as printed in Table 1: HsQGTFTSDK(γEγEC16)SKYLDERAA*S5HDFV*S5HWLLDT-NH2 (Table 2 prints HSQ...); s = D-Serine (position 2); Lys 10 conjugated to C16 fatty acid via γEγE; two *S5H = (S)-2-aminohept-6-enoic acid (positions 20 and 24) cyclized to form a double bond containing ring; C-terminal amide
B2: peptide of SEQ ID NO: 8 (TP398) (peptide)
peptide: HXQGTFTSDXSKYLDEXAAQDFVXWLLDT
modifications: as printed: HsQGTFTSDK(γEγEC16)SKYLDE*R6meAAQDFV*S7meWLLDT-NH2; s = D-Serine (position 2); Lys 10 conjugated to C16 fatty acid via γEγE; *R6me (position 17) and *S7me (position 24) cyclized to form a double bond containing ring; C-terminal amide
B3: peptide of SEQ ID NO: 17 (TP 556) (peptide)
peptide: HXQGTFTSDKSKYLDERAAXDFVXWLLDT
modifications: as printed: HsQGTFTSDKSKYLDERAA*S5HDFV*S5HWLLDT-NH2; s = D-Serine (position 2); two *S5H (positions 20 and 24) cyclized to form a double bond containing ring; C-terminal amide
B4: peptide of SEQ ID NO: 7 (TP397) (peptide)
peptide: HXQGTFTSDXSXYLDERAXQDFVQWLLDT
modifications: as printed: HsQGTFTSDK(γEγEC16)S*R6meYLDERA*S7meQDFVQWLLDT-NH2; s = D-Serine (position 2); Lys 10 conjugated to C16 fatty acid (-CO-(CH2)14-CH3) via γ-glutamic acid-γ-glutamic acid; *R6me (position 12) and *S7me (position 19) cyclized to form a double bond containing ring; C-terminal amide
B5: peptide of SEQ ID NO: 14 (TP402) (peptide)
peptide: H[Aib]QGTFTSDK([γGlu-γGlu-Palmitoyl])SKYLD[Aib]RAAQDFV[S5]WLM[S5]TK-NH2
modifications: staple 24-28; not fully specified (residue 30); printed as HUQGTFTSDK(γEγEC16)SKYLDURAAQDFV*S5meWLM*S5meTKγE-NH2; also: Lys 30 conjugated by a gamma-glutamic acid (KγE)
B6: peptide of SEQ ID NO: 13 (TP401) (peptide)
peptide: H[Aib]QGTFTSDK([γGlu-γGlu-Palmitoyl])SKYLD[Aib]RAAQ[R6me]FVQWLM[S7]TK-NH2
modifications: staple 21-28; not fully specified (residue 30); printed as HUQGTFTSDK(γEγEC16)SKYLDURAAQ*R6meFVQWLM*S7meTKγE-NH2; also: Lys 30 conjugated by a gamma-glutamic acid (KγE)

Legend:
[1] = biological target: human GLP-1 receptor (GLP1R) (human, UniProt P43220); assay: cell-based or functional assay
[2] = biological target: human Glucagon receptor (GCGR) (human, UniProt P47871); assay: cell-based or functional assay

| Binder | GLP1R EC50 human (cAMP activity assay) [1] [nM] | GCGR EC50 human (cAMP activity assay) [2] [nM] |
| --- | --- | --- |
| B1 | 1.5 | 0.67 |
| B2 | 2.28 | 5 |
| H[dS]QGTFTSDKSKYLDERAA[R6me]DFVQWL[S7]DT-NH2 (staple 20-27) [peptide of SEQ ID NO: 11 (TP 399)] | 2.74 | 5 |
| H[dS]QGTFTSDKS[R6me]YLDERA[S7]QDFVQWLLDT-NH2 (staple 12-19) [peptide of SEQ ID NO: 6 (TP397)] | 5.3 | 20 |
| B3 | 2.38 | 3.38 |
| B4 | 0.77 | 5 |
| H[dS]QGTFTSDK([γGlu-γGlu-Palmitoyl])SKYLDERAA[R6me]DFVQWL[S7]DT-NH2 (staple 20-27) [peptide of SEQ ID NO: 10 (TP399)] | 0.45 | 8.64 |
| B5 | 0.13 | 4.56 |
| B6 | 0.26 | 5 |

Reference: patent publication US20230270825A1, “STAPLED OLEFIN CO-AGONISTS OF THE GLUCAGON AND GLP-1 RECEPTORS” (Merck Sharp & Dohme LLC, priority 2019, published 2023)
